Assay results published in patent US20200277374A1 (Alector, published 2020).

B1: anti-Siglec-7 antibody 2G4 (antibody, V domains shown)
VH: QVQLQQSGSELRSPGSSVKLSCKDFDSEVFPITYMNWVRQKPGHGFEWIGDILPSIGRTMYGEKFEDKATLDADTVSNTAYLELNSLTSEDSAIYYCARSEGYLLAYWGQGTLVTVSA
VL: DIQMTQSLSYLSVSLGGRVTITCKASDHINNWLAWYQQKPGNAPRLLISGATSLETGFPSRFSGSGSGKDYTLSITSLQTEDVATYYCHQYWNTPYTFGGGTRLEIK
notes: Variable domains assembled from FR and CDR entries
B2: anti-Siglec-7 antibody 10G8 (antibody, V domains shown)
VH: EVKLVEFGGALVKPGGSLKLSCAALGFTFSTYAMFRVRQTPEKREEGVASISSGGRYTYYPDSAKDRHPIFRDNARNTLYLQMSSLRSKDTAMYYCVRHSYGSSYWYLDVWGAGTTVTVSS
VL: DIQMTQFPATLSGTPGDRVZLSRRASQSIREYLHWYQQKSHESPRLZIKFASQSICGIPSRFSGSGSGSDFTLSINTVEPEDVGVYYCQKAHNFPYTFGGGTKLEIK
notes: as for B1

Columns and labels:
[1] = biological target: T1, Histidine-tagged human Siglec-7 (NovoProtein) (human, UniProt Q9Y286 19-357, limits assumed); experiment: SPR (BiaCore T200, 25 C), antibody captured on anti-mouse IgG, Siglec-7-His 50 nM, single-concentration kinetics
T1 construct: Bought protein; also called purified Siglec-7-his tagged protein; not shown: histidine tag
Procedure: (§1) SPR data was collected at a rate of 10 Hz at 25′ C on a BiaCore T200 instrument. Data analysis was performed using BiaCore T200 Evaluation Software, version 2.0. HBS-EP+ (100 mM HEPES, 1.5 M NaCl, 30 mM EDTA, 0.5% v/v Surfactant P20, pH 7.4) was used as running buffer and for preparing reagents.
(§2) Mouse-derived antibodies (25 nM) against Siglec-7 were captured (60 s contact time, 30 μL/min flow rate, 0 s stabilization time) on a CM5 sensor chip (GE Healthcare) immobilized with anti-mouse IgG. Histidine-tagged human Siglec-7 (NovoProtein) was then flowed over the captured anti-Siglec-7 surface (120 s contact time, 30 μL/min flow rate, 300 s dissociation time). Concentration of antigen ranged from 5 nM to 100 nM, depending on information obtained from an initial screen. Duplicate single-concentration trials were performed and bracketed by a blank (0 nM antigen) sample. The chip surface was regenerated in between cycles using 10 mM glycine-HCl, pH1.7 (60 s contact time, 30 μL/min flow rate, 60 s stabilization time). The resulting SPR signal was obtained as the difference in response from measurements performed on a blank flow cell.
(§3) Affinity constants (KD) were calculated from the ratio kd/kₐ. For one antibody (clone 1E8), we validated the single-concentration analysis with a multiple-concentration approach (five concentrations of antigen used, plus one blank).

[2] = biological target: T2, human Siglec-7 expressed on human cells (primary monocytes, dendritic cells, macrophages, NK cells, … (human, UniProt Q9Y286 19-467)); experiment: FACS, human primary macrophages, 10 ug/ml mAb
T2 construct: Endogenous receptor on cells; also called Siglec-7 receptor

[3] = biological target: T2, human Siglec-7 expressed on human cells …; experiment: FACS, human primary monocytes, 10 ug/ml mAb
[4] = biological target: T2, human Siglec-7 expressed on human cells …; experiment: FACS, human primary dendritic cells, 10 ug/ml mAb
[5] = biological target: T3, Siglec-7-Fc (plate immobilized) (human, UniProt Q9Y286 19-357, limits assumed); experiment: RBC solid adhesion assay, plate-coated Siglec-7-Fc, antibody 0.5 or 1.0 ug/ml; % of RBC binding without antibody
T3 construct: also called Siglec-7-Fc protein; immobilized Siglec-7; not shown: Fc part
Summary of the method: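 Plates coated overnight at RT with 5 μg/ml Siglec-7-Fc and blocked in PBS with BSA and 1 mM CaCl₂. Antibody (0.5 or 1.0 μg/ml) bound 1 h at RT, then RBCs (3.0×10⁶ cells/ml) added for 1 h at RT. Bound RBCs lysed and detected by peroxidase at 450 nm, expressed as % of binding without antibody.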

[6] = biological target: T2, human Siglec-7 expressed on human cells …; experiment: cell-based or functional assay
[7] = biological target: T2, human Siglec-7 expressed on human cells …; experiment: cell-based or functional assay; remark: listed apart in the source
[8] = biological target: T1, Histidine-tagged human Siglec-7 …; experiment: SPR (BiaCore T200, 25 C), antibody captured on anti-mouse IgG, Siglec-7-His 10 nM, single-concentration kinetics
Procedure: as §1, §2, §3

T2 sequence (Q9Y286 19-467): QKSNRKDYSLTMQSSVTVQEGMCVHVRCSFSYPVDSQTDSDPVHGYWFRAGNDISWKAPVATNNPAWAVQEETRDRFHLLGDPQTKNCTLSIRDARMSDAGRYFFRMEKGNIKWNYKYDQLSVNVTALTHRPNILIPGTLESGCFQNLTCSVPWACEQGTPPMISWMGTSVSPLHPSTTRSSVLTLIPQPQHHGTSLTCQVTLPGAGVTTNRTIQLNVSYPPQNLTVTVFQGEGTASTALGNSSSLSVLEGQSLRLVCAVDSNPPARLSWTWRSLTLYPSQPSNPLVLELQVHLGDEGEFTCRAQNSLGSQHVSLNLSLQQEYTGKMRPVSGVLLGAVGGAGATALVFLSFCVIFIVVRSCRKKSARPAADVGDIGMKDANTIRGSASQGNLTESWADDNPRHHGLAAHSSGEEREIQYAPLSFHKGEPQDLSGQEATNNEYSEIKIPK
T3 sequence (Q9Y286 19-357 limits assumed): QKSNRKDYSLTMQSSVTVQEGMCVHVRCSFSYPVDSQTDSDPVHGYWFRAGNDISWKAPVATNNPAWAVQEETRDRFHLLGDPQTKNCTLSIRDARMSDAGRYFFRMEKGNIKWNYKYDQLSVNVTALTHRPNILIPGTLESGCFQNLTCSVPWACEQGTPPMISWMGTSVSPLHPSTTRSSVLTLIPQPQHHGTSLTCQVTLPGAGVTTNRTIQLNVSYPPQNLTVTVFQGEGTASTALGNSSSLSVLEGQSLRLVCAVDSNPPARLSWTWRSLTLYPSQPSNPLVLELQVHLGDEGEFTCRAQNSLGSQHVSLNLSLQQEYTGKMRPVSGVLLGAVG
T1 sequence (Q9Y286 19-357 limits assumed): as above

Row | Binder | Kd [1] | % Positive [2] | MFI [2] | % Positive [3] | MFI [3] | % Positive [4] | MFI [4] | Percent RBC Binding to Siglec-7 [5] | Percent Siglec-7 Surface Expression, DCs [6] | Percent Siglec-7 Surface Expression, Monocytes [6] | Percent Siglec-7 Surface Expression, U937 cells [6] | Percent Siglec-7 Surface Expression, Macrophages [7] | Percent Siglec-7 Surface Expression, Microglia [7] | Percent Siglec-7 Surface Expression, NK cells [7] | Kd [8]
1 | B1 | 0.4 nM | 99.5% | 15500 | 99.3% | 512 | 99.7% | 5750 | 11.6% | 98.1% | 29.3% | 84.6% | 14.1% | 23% | 126% | –
2 | B2 | – | 99.7% | 3280 | 99.1% | 523 | 99.5% | 897 | 111% | 10.5% | 30.9% | 83.8% | 9.2% | – | 74.7% | 0.6 nM
